From US20020086018A1 (published 2002)

Biological target: T1, hTACI-Fc (soluble human TACI-Fc receptor fusion protein) (human, UniProt O14836 1-165)
T1 construct: also called shTACI-Fc; sTACI
T1 sequence: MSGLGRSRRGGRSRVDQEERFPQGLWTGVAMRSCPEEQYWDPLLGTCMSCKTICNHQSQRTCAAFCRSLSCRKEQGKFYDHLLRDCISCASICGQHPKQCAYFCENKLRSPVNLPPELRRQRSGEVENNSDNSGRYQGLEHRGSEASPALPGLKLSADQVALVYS
Assay: BIAcore 2000; TACI-Fc immobilised on CM5, Flag-APRIL as analyte, 1:1 Langmuir model

Kd: 1.48 nM
B1: Soluble murine APRIL-Flag protein (FLAG-tagged soluble mouse G70) (ligand)
chain: KHKKKHSVLHLVPVNITSKADSDVTEVMWQPVLRRGRGLEAQGDIVRVWDTGIYLLYSQVLFHDVTFTMGQVVSREGQGRRETLFRCIRSMPSDPDRAYNSCYSAGVFHLHQGDIITVKIPRANAKLSLSPHGTFLGFV
